In article PMC5932227 one finds Kd data, which are given here for one substance.

For the assay, the target named is cynomolgus OX40, native, on activated cynomolgus CD4 T cells (cynomolgus (endogenous in primary CD4 T cells)). In words: flow cytometry on cells. Background: In flow cytometry, cells or beads pass a laser one at a time.

Take “MEDI6383, human OX40 ligand IgG4P Fc fusion protein”: the Kd is 0.024 nM.

For orientation: Kd means the concentration at which binding is half-saturated. Low readings indicate tighter binding, high ones weaker binding.
